The series deals with the molecule itself. Put plainly: crystal structure.

B1: Cdc10_(Δ1-10) (domain or fragment)
chain: SYVGFDTITNQIEHRLLKKGFQFNIMVVGQSGLGKSTLINTLFASHLIDSATGDDISALPVTKTTEMKISTHTLVEDRVRLNINVIDTPGFGDFIDNSKAWEPIVKYIKEQHSQYLRKELTAQRERFITDTRVHAILYFLQPNGKELSRLDVEALKRLTEIANVIPVIGKSDTLTLDERTEFRELIQNEFEKYNFKIYPYDSEELTDEELELNRSVRSIIPFAVVGSENEIEINGETFRGRKTRWSAINVEDINQCDFVYLREFLIRTHLQDLIETTSYIHYEGFRARQLIALKENANSRSSAHMSSNAIQR
For B1, the binding result is on record as “binds”.
